Laboratory results reported in US8017735B2, “Anti-IGFR1 antibody therapeutic combinations” (Schering Corporation, priority 2003, dated 2011).

Tested on: MCF7 cells
Assay: Proliferation assay (Cell Titer-Glo) with anti-IGFR1 antibody and a chemotherapeutic agent, MCF7 cells
Type: cell-based
Procedure: The ability of cells in culture to proliferate when exposed to varying concentrations of the 19D12/15H12 wild-type or 19D12/15H12 LCF/HCA anti-IGFR1 antibody and either paclitaxel, gefitinib, lonafarnib 4-hydroxy tamoxifen or doxorubicin was evaluated in this example.
Cell Preparation. […] The cells were trypsinized, counted and resuspended at a concentration of 25000 cells/ml in 10% HI-FBS (heat-inactivated fetal bovine serum) RPMI medium containing NEAA (non-essential amino acids), L-Glu, MEM Vitamins and PS. 100 ul of cell suspension (2500 cells) was added to each well of a BD Falcon 96 well black, clear bottom TC treated plate. The cells were allowed to attach and spread overnight at 37° C. The 10% RPMI solution was replaced with 100 μl RPMI containing 2% HI-FBS containing NEAA, L-Glu, MEM Vitamins and PS.
Solution Preparation. All assay reagents were prepared in RPMI containing 2% HI-FBS at 20× concentration and serial diluted for a total of 10 test concentrations per treatment. Every test point was prepared in triplicate on separate assay plates.
Reagent 1 and 19D12/15H12 or 19D12/15H12 LCF/HCA were set up individually as dose responses as well as in combination with each other. Cell proliferation was measured on Day4.
Assay. Cell proliferation was measured using the Promega Cell Titer-Glo Luminescent Cell Viability Assay (Promega Corp.; Madison, Wis.). This assay provided a method for determining the number of viable cells in culture based on quantitation of ATP in the culture, which indicates the presence of metabolically active cells.
The assay reagents and assay plates were equilibrated to room temperature and prepared immediately before addition to the assay plates. One volume of assay reagent was added to each well of the assay plate and shaken on an orbital platform for at least ten minutes to allow for equilibration of the ATP reaction and to ensure total lysis of all cells in the assay plate. […] Luminescence was detected on Wallac 420 Plate Reader with stacker.
The units in the tables (proliferation index) are arbitrary and are proportional to the number of viable cells observed in the culture under each respective condition.
In Tables 2-6, “ug” indicates micrograms and “uM” indicates micromolar.

B1: 19D12/15H12: 19D12/15H12 wild-type anti-IGFR1 antibody (antibody, listed as Homo sapiens, V domains shown)
VL: MSPSQLIGFLLLWVPASRGEIVLTQSPGTLSVSPGERATLSCRASQSIGSSLHWYQQKPGQAPRLLIKYASQSLSGIPDRFSGSGSGTDFTLTISRLEPEDFAVYYCHQSSRLPHTFGQGTKVEIKRT
VH: MEFGLSWVFLVAILKGVQCEVQLVQSGGGLVKPGGSLRLSCAASGFTFSSFAMHWVRQAPGKGLEWISVIDTRGATYYADSVKGRFTISRDNAKNSLYLQMNSLRAEDTAVYYCARLGNFYYGMDVWGQGTTVTVSS
Proliferation of MCF7 cells (19D12/15H12 0.00001024 nM + doxorubicin 0.00001024 ug/mL): 101144
Proliferation of MCF7 cells (19D12/15H12 0.00001024 nM + doxorubicin 0.0000512 ug/mL): 102670
Proliferation of MCF7 cells (19D12/15H12 0.00001024 nM + doxorubicin 0.000256 ug/mL): 100293
Proliferation of MCF7 cells (19D12/15H12 0.00001024 nM + doxorubicin 0.0064 ug/mL): 95276
Proliferation of MCF7 cells (19D12/15H12 0.00001024 nM + doxorubicin 0.8 ug/mL): 5132
Proliferation of MCF7 cells (19D12/15H12 0.00001024 nM + doxorubicin 4 ug/mL): 12606
Proliferation of MCF7 cells (19D12/15H12 0.00001024 nM + doxorubicin 20 ug/mL): 7789
Proliferation of MCF7 cells (19D12/15H12 0.0000512 nM + doxorubicin 0.00001024 ug/mL): 111388
Proliferation of MCF7 cells (19D12/15H12 0.0000512 nM + doxorubicin 0.0000512 ug/mL): 106322
Proliferation of MCF7 cells (19D12/15H12 0.0000512 nM + doxorubicin 0.000256 ug/mL): 107406
Proliferation of MCF7 cells (19D12/15H12 0.0000512 nM + doxorubicin 0.0064 ug/mL): 93794
Proliferation of MCF7 cells (19D12/15H12 0.0000512 nM + doxorubicin 0.8 ug/mL): 5649
Proliferation of MCF7 cells (19D12/15H12 0.0000512 nM + doxorubicin 4 ug/mL): 11124
Proliferation of MCF7 cells (19D12/15H12 0.0000512 nM + doxorubicin 20 ug/mL): 6793
Proliferation of MCF7 cells (19D12/15H12 0.000256 nM + doxorubicin 0.00001024 ug/mL): 86861
Proliferation of MCF7 cells (19D12/15H12 0.000256 nM + doxorubicin 0.0000512 ug/mL): 76193
Proliferation of MCF7 cells (19D12/15H12 0.000256 nM + doxorubicin 0.000256 ug/mL): 74312
Proliferation of MCF7 cells (19D12/15H12 0.000256 nM + doxorubicin 0.0064 ug/mL): 70725
Proliferation of MCF7 cells (19D12/15H12 0.000256 nM + doxorubicin 0.8 ug/mL): 5698
Proliferation of MCF7 cells (19D12/15H12 0.000256 nM + doxorubicin 4 ug/mL): 13174
Proliferation of MCF7 cells (19D12/15H12 0.000256 nM + doxorubicin 20 ug/mL): 6667
Proliferation of MCF7 cells (19D12/15H12 0.0064 nM + doxorubicin 0.00001024 ug/mL): 60936
Proliferation of MCF7 cells (19D12/15H12 0.0064 nM + doxorubicin 0.0000512 ug/mL): 60524
Proliferation of MCF7 cells (19D12/15H12 0.0064 nM + doxorubicin 0.000256 ug/mL): 61820
Proliferation of MCF7 cells (19D12/15H12 0.0064 nM + doxorubicin 0.0064 ug/mL): 53583
Proliferation of MCF7 cells (19D12/15H12 0.0064 nM + doxorubicin 0.8 ug/mL): 4702
Proliferation of MCF7 cells (19D12/15H12 0.0064 nM + doxorubicin 4 ug/mL): 10648
Proliferation of MCF7 cells (19D12/15H12 0.0064 nM + doxorubicin 20 ug/mL): 7057
Proliferation of MCF7 cells (19D12/15H12 0.8 nM + doxorubicin 0.00001024 ug/mL): 70307
Proliferation of MCF7 cells (19D12/15H12 0.8 nM + doxorubicin 0.0000512 ug/mL): 64429
Proliferation of MCF7 cells (19D12/15H12 0.8 nM + doxorubicin 0.000256 ug/mL): 60055
Proliferation of MCF7 cells (19D12/15H12 0.8 nM + doxorubicin 0.0064 ug/mL): 56538
Proliferation of MCF7 cells (19D12/15H12 0.8 nM + doxorubicin 0.8 ug/mL): 4916
Proliferation of MCF7 cells (19D12/15H12 0.8 nM + doxorubicin 4 ug/mL): 11778
Proliferation of MCF7 cells (19D12/15H12 0.8 nM + doxorubicin 20 ug/mL): 7693
Proliferation of MCF7 cells (19D12/15H12 4 nM + doxorubicin 0.00001024 ug/mL): 61992
Proliferation of MCF7 cells (19D12/15H12 4 nM + doxorubicin 0.0000512 ug/mL): 57611
Proliferation of MCF7 cells (19D12/15H12 4 nM + doxorubicin 0.000256 ug/mL): 58980
Proliferation of MCF7 cells (19D12/15H12 4 nM + doxorubicin 0.0064 ug/mL): 53567
Proliferation of MCF7 cells (19D12/15H12 4 nM + doxorubicin 0.8 ug/mL): 4259
Proliferation of MCF7 cells (19D12/15H12 4 nM + doxorubicin 4 ug/mL): 12760
Proliferation of MCF7 cells (19D12/15H12 4 nM + doxorubicin 20 ug/mL): 8097
Proliferation of MCF7 cells (19D12/15H12 20 nM + doxorubicin 0.00001024 ug/mL): 59288
Proliferation of MCF7 cells (19D12/15H12 20 nM + doxorubicin 0.0000512 ug/mL): 60307
Proliferation of MCF7 cells (19D12/15H12 20 nM + doxorubicin 0.000256 ug/mL): 62242
Proliferation of MCF7 cells (19D12/15H12 20 nM + doxorubicin 0.0064 ug/mL): 54983
Proliferation of MCF7 cells (19D12/15H12 20 nM + doxorubicin 0.8 ug/mL): 5202
Proliferation of MCF7 cells (19D12/15H12 20 nM + doxorubicin 4 ug/mL): 10465
Proliferation of MCF7 cells (19D12/15H12 20 nM + doxorubicin 20 ug/mL): 7489
